The results in this text go back to US20250051788A1.

Holding throughout (assay): anti-FLAG IP-MS vs mock IP
In test [1] the target is thioglucoside glucohydrolase 1 (TGG1) (AT5G26000) (Arabidopsis thaliana) (UniProt P37702).
Test [2] concerns the target Nodulin-related protein 1 (NRP1) (AT2G03440) (Arabidopsis thaliana) (UniProt Q9ZQ80).
Test [3] concerns the target Thioredoxin superfamily protein (ATHM2) (AT4G03520) (Arabidopsis thaliana) (UniProt Q9SEU8).
Test [4] concerns the target Phosphoserine aminotransferase (PSAT) (AT4G35630) (Arabidopsis thaliana) (UniProt Q96255).
Sequence of UniProt Q96255 (Q96255 52-430): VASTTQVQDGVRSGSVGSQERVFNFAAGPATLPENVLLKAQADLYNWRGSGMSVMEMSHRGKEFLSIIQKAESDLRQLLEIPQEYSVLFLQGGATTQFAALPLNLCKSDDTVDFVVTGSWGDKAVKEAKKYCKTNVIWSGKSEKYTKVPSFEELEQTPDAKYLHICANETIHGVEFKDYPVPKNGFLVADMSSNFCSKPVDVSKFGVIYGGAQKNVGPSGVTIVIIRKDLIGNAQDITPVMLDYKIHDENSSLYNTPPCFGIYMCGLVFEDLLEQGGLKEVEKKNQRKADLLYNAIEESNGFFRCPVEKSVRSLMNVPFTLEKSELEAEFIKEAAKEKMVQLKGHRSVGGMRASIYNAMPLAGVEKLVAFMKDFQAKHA

Sequence of UniProt Q9SEU8 (Q9SEU8 73-186): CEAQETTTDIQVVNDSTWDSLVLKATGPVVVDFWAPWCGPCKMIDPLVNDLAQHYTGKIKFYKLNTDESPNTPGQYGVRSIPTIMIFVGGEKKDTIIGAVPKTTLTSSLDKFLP
Sequence of UniProt P37702 (P37702 20-541 limits assumed): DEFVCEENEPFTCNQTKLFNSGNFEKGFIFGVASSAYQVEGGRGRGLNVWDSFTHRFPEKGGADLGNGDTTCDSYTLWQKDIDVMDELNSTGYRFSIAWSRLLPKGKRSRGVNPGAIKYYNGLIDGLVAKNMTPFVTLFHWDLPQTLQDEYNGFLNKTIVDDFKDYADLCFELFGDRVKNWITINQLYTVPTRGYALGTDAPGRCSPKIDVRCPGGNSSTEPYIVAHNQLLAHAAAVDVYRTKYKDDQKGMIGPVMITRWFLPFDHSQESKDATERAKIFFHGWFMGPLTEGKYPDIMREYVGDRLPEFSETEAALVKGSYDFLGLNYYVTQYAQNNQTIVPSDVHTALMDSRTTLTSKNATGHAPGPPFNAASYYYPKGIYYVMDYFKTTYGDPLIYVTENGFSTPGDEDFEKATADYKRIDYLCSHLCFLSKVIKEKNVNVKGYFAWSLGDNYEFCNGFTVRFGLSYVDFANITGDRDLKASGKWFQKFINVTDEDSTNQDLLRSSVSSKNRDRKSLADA
Sequence of UniProt Q9ZQ80 (Q9ZQ80 whole entry): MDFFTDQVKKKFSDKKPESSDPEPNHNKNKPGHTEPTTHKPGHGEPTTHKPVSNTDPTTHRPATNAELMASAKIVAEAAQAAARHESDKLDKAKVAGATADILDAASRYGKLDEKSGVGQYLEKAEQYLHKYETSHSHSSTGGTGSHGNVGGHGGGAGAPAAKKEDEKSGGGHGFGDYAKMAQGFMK

In test [1], “FLAG-BD (FLAG-tagged minimal Arabidopsis BRN1 protein that contains only the first two RRM domains) (from UniProt Q8LFS6 2-199)” had a Log2(FC) Replicate 1/ Mock of -0.214 log2, a Log2(FC) Replicate 2/ Mock of 0.697 log2, a Log2(FC) Replicate 3/ Mock of 1.95 log2 and a Log2(FC) Replicate 4/ Mock of 1.84 log2. In test [2], this substance displayed a Log2(FC) Replicate 1/ Mock of 2 log2, a Log2(FC) Replicate 2/ Mock of 2.5 log2, a Log2(FC) Replicate 3/ Mock of 1.74 log2 and a Log2(FC) Replicate 4/ Mock of 1.87 log2. In test [3], this substance registered a Log2(FC) Replicate 1/ Mock of 0.585 log2, a Log2(FC) Replicate 2/ Mock of 2.17 log2, a Log2(FC) Replicate 3/ Mock of 3.39 log2 and a Log2(FC) Replicate 4/ Mock of 3.09 log2. In test [4], this substance registered a Log2(FC) Replicate 1/ Mock of 3.09 log2, a Log2(FC) Replicate 2/ Mock of 3.17 log2, a Log2(FC) Replicate 3/ Mock of 1.81 log2 and a Log2(FC) Replicate 4/ Mock of 1.81 log2.
